Measured values from PMC12441119 (Cell Discovery, 2025).

Legend:
Details in all cases: both partners purified
[1] = target: T1, STK4 (residues 1–326) K59R (human, UniProt Q13043 1-326, K59R); test: SEC; each protein alone and the mixture at matched concentrations on Superdex 200 Increase 10/300 GL or Superdex 75 Increase 10/300 GL; a forward shift or increase of the peak read qualitatively; fractions on SDS-PAGE (Fig. 1c: 20 μM HOIP RING2-LDD, 30 μM STK4 KD, Superdex 75 Increase)
T1 construct: also called KD; source: E. coli BL21 (DE3), purified (Ni-NTA, SEC)
T1 sequence (looked up): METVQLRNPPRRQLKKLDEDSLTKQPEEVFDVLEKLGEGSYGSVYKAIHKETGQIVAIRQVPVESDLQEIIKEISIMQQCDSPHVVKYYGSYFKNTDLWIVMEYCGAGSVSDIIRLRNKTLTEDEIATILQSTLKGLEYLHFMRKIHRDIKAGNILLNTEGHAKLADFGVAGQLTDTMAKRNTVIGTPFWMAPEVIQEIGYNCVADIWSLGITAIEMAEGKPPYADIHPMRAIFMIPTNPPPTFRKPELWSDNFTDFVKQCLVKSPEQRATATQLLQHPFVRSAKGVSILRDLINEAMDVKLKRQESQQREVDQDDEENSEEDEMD

[2] = target: T2, STK4 (residues 1–487) K59R (human, UniProt Q13043 1-487, K59R); test: ITC; MicroCal PEAQ-ITC, 25 °C; 20 mM Tris-HCl pH 7.5, 100 mM NaCl, 1 mM DTT; ~50 μM in the cell, ~500 μM in the syringe; one-site binding model
T2 construct: The tag could be cut by HRV 3C protease 'if desired'; also called kinase-dead full-length STK4; MST1; source: E. coli BL21 (DE3), purified (Ni-NTA, SEC)
T2 sequence (looked up): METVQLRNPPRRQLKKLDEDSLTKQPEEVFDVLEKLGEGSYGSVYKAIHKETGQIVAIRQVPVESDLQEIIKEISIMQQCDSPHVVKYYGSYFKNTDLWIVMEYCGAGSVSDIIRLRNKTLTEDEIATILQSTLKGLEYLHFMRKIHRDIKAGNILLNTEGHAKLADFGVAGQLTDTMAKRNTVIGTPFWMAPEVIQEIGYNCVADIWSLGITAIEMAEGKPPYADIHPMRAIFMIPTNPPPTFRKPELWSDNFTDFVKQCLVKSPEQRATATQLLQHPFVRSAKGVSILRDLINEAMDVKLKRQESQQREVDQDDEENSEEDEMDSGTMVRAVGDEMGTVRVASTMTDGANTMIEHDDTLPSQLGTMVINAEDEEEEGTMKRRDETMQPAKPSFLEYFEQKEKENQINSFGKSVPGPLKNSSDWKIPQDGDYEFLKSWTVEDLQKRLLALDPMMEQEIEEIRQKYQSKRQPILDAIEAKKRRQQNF

[3] = target: T3, STK4 (residues 11–326) K59R (human, UniProt Q13043 11-326, K59R); test: as above
T3 construct: Monomer-dimer equilibrium in solution; dimer in the crystal; also called STK4 KD; source: E. coli BL21 (DE3), purified (Ni-NTA, SEC)
T3 sequence (looked up): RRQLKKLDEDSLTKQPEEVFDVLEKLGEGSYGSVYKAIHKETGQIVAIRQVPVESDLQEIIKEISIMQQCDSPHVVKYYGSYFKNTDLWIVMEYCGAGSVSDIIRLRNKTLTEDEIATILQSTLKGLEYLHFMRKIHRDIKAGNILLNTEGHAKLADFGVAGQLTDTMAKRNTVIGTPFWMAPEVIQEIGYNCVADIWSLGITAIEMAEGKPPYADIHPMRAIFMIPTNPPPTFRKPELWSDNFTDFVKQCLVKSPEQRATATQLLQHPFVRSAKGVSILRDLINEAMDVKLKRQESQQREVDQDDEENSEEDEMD

Measured: binding result

B1: HOIP (residues 854–1072) (domain or fragment, UniProt Q96EP0 854-1072, looked up)
chain: EYQAQGLAMYLQENGIDCPKCKFSYALARGGCMHFHCTQCRHQFCSGCYNAFYAKNKCPEPNCRVKKSLHGHHPRDCLFYLRDWTALRLQKLLQDNNVMFNTEPPAGARAVPGGGCRVIEQKEVPNGLRDEACGKETPAGYAGLCQAHYKEYLVSLINAHSLDPATLYEVEELETATERYLHVRPQPLAGEDPPAYQARLLQKLTEEVPLGQSIPRRRK
notes: also called HOIP RING2-LDD; source: E. coli BL21 (DE3), purified (glutathione resin, SEC)
binds: all assays above
